Experimental data from article PMC4841250, “Structure and stability of recombinant bovine odorant-binding protein: I. Design and analysis of monomeric mutants” (PeerJ, 2016).

Biological target: the molecule itself
Test: SEC; gel filtration on Superdex-75 PC 3.2/30, buffered solution (20 mM Na-phosphate, pH 7.8) without OCT; calibrated with protein standards; monomer and dimer

B1: recombinant wild type bovine odorant-binding protein (natural protein)
chain: AQEEEAEQNLSELSGPWRTVYIGSTNPEKIQENGPFRTYFRELVFDDEKGTVDFYFSVKRDGKWKNVHVKATKQDDGTYVADYEGQNVFKIVSLSRTHLVAHNINVDKHGQTTELTELFVKLNVEDEDLEKFWKLTEDKGIDKKNVVNFLENEDHPHPE
notes: also called bOBP; bOBPwt; source: E. coli BL21(DE3), purified (Ni-agarose, HisGraviTrap columns)
stoichiometry N: 2
